Residue numbers refer to the chain shown, from its start. One block for each binder: values may come before it.
Assays:
[1] = target: T1, Human Fas (CD95) on the cell surface (human, UniProt P25445 26-335); test: cell-based or functional assay
T1 sequence: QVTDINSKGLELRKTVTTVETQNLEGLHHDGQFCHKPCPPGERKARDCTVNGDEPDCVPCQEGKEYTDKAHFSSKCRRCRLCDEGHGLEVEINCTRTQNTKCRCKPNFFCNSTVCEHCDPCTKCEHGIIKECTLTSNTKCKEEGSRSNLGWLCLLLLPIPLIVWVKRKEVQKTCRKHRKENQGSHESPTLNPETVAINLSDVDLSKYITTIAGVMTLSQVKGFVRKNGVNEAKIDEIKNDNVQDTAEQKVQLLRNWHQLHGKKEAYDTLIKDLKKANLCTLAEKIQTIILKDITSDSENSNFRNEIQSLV

[2] = target: T2, Recombinant human soluble Fas receptor (PeproTech, Cat. 310-20) (human, UniProt P25445 17-173); test: SPR (BIAcore 3000), soluble Fas immobilized on CM5 chip; antibody form and model not given
T2 construct: Bought soluble form; also called sFas; rFas
T2 sequence (looked up): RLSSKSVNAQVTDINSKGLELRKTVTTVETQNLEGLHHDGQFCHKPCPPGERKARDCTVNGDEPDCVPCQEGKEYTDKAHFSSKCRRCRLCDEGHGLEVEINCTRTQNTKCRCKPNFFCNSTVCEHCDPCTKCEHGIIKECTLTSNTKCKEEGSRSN

[3] = target: T3, Rat Fas on the cell surface (rat, UniProt Q63199 22-324); test: flow cytometry, rat peripheral blood lymphocytes
T3 construct: whole, on cells; also called Fas on rat peripheral blood lymphocytes
T3 sequence (looked up): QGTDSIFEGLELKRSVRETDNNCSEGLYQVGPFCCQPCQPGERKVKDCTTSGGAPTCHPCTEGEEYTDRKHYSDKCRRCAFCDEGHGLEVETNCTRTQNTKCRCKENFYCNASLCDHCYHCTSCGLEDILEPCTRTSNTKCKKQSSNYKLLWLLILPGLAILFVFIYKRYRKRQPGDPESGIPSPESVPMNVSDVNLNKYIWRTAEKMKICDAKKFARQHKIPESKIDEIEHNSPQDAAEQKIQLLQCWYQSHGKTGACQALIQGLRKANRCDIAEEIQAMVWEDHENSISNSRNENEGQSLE
Excerpt: (§1) Reactivity of F45D9-γ1 or F45D9-γ4 mAb with Fas molecules of various species was initially screened using primary blood cells or lymphocytes cell lines. The binding of F45D9-γ1 or F45D9-γ4 mAb was explored by immunofluoresce staining and flow cytometry analysis, in human PBMC, purified human resting T cells, activated human T cells, peripheral blood lymphocytes (PBL) derived from BALE/c mice, rat, dog and pig, and in B cell lines or PBL derived from common marmoset, cynomolgus macaque, olive baboon, rhesus macaque and chimpanzee. Resting and activated human T cells were prepared as described in Example 7. B cells lines from monkeys were obtained from Biomedical Primate Research Center (Rijswijk, The Netherlands), and were cultured in RPMI 1640 medium supplemented with 2 mM glutamax, 100 UI/mL penicillin, 100 μg/mL streptomycin and 10% fetal bovine serum, at 37° C. and 5% CO₂. After washing in PBS cells (0.2−0.4×10⁶ cells/well) were incubated in staining buffer (PBS/1% FBS) containing F45D9-γ1 or human IgG control antibodies (10-20 ug/ml) in a 96-well U-bottom plate for 30 min on ice, in a 100 ul/well volume. Cells were then washed once with staining buffer, and further incubated for 30 min on ice with 1:30 dilution of FITC-conjugated rabbit F(ab′)₂ anti-human kappa (DakoCytomation Cat. F0434) or FITC-conjugated rabbit F(ab′)₂ anti-human IgG (DakoCytomation Cat. F0056). […]

[4] = target: T4, Rhesus macaque Fas on the cell surface (rhesus macaque, UniProt Q9BDP2 26-333); test: flow cytometry, rhesus macaque B cell line
T4 construct: whole, on cells
T4 sequence (looked up): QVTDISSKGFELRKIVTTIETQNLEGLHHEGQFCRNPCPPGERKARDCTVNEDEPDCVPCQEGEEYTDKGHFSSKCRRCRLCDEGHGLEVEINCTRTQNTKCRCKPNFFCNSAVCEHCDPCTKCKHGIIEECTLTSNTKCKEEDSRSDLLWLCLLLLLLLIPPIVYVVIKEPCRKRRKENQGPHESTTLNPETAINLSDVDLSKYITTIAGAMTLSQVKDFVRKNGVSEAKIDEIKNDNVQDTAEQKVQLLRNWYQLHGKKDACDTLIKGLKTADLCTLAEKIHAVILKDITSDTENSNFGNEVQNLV
Excerpt: as §1

[5] = target: T5, Chimpanzee Fas on the cell surface (chimpanzee, UniProt K6ZIR5 26-335); test: flow cytometry, chimpanzee B cell line
T5 construct: also called Fas on chimpanzee B cell line
T5 sequence: T1 sequence with G26D, T135A, G150W, E264D, D272G
Excerpt: as §1

[6] = target: T6, Cynomolgus macaque Fas on the cell surface (cynomolgus macaque, UniProt Q9TSN4 26-331); test: flow cytometry, cynomolgus macaque B cell line
T6 construct: whole, on cells; also called Fas on cynomolgus macaque B cell line and PBL
T6 sequence (looked up): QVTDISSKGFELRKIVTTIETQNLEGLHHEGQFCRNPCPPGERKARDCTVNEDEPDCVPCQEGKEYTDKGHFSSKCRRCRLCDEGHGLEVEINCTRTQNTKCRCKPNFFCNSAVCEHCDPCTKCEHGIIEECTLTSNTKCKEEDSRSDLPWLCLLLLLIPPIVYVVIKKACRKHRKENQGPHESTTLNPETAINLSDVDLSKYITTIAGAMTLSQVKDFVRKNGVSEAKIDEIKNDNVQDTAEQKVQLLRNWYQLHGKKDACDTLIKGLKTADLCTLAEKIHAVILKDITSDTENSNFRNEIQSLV
Excerpt: as §1

[7] = target: T7, Mouse Fas on the cell surface (mouse, UniProt P25446 22-327); test: flow cytometry, peripheral blood lymphocytes of mice
T7 construct: whole, on cells; also called Fas on peripheral blood lymphocytes of BALB/c mice
T7 sequence (looked up): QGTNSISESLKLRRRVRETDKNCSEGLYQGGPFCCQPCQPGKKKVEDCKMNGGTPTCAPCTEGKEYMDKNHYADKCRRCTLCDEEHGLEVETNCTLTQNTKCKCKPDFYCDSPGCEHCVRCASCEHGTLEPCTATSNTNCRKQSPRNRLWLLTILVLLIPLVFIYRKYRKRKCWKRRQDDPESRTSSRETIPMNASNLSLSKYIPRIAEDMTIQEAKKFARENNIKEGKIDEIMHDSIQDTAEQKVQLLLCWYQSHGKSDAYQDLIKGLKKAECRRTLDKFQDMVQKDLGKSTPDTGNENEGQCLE
Excerpt: as §1

[8] = target: T8, Pig Fas on the cell surface (pig, UniProt O77736 17-332); test: flow cytometry, pig peripheral blood lymphocytes
T8 construct: whole, on cells; also called Fas on pig peripheral blood lymphocytes
T8 sequence (looked up): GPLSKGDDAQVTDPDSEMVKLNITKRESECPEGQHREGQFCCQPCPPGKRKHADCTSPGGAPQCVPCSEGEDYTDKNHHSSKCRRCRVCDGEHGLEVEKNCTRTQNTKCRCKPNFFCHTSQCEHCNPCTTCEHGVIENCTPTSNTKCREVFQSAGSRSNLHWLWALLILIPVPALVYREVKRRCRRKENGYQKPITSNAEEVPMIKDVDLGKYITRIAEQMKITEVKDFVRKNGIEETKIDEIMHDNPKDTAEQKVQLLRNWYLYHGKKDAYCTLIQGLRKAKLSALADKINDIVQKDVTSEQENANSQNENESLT
Excerpt: as §1

[9] = target: T1, Human Fas (CD95) on the cell surface; test: flow cytometry on Jurkat cells, FITC anti-human IgG secondary, geometric MFI after background subtraction
Experimental: (§2) Binding of F45D9-γ1 and F45D9-γ4 to the surface of Fas expressing Jurkat and SKW6.4 cells (from ATCC, Jurkat, clone E6-1, ATCC-TIB-152, Human T Leukemia cell line); SKW6.4 cells, ATCC-TIB-215, Human B lymphoblastoid cell line) was explored by immunofluorescence staining and flow cytometry analysis. Cells were cultured in RPMI 1640 medium (GIBCO, Cat. 3105205) supplemented with 2 mM glutamax (GIBCO), 100 UI/mL penicillin, 100 μg/mL streptomycin (Sigma) and 5-10% fetal bovine serum (GIBCO), at 37° C. and 5% CO₂. After washing in PBS Jurkat or SKW6.4 cells (0.2×10⁶ cells/well) were incubated in staining buffer (PBS/1% FBS) containing F45D9-γ1, F45D9-γ4 or human IgG control antibodies (Human IgG1, kappa, Sigma, Cat. I5154 or Human IgG4, kappa, Sigma, Cat. I4639) in a 96-well U-bottom plate for 30 min on ice, in a 100 ul/well volume. Cells were then washed once with staining buffer, and further incubated for 30 min on ice with 1:30 dilution of FITC-conjugated rabbit F(ab′)₂ anti-human IgG (DakoCytomation Cat. F0056). After washing and fixing with 1% formaldehyde in PBS cells were analyzed in a FACScan (Becton Dickinson, Mountain View, Calif.). The reactivity of F45D9-γ1 and F45D9-γ4 to the surface of Jurkat cells was quantified and Geometric Mean Fluorescence Intensity (MFI) after background subtraction (FIG. 1A) and histograms (FIG. 1B) are shown. […]

[10] = target: T5, Chimpanzee Fas on the cell surface; test: flow cytometry on chimpanzee cells
[11] = target: T2, Recombinant human soluble Fas receptor …; test: SPR (BIAcore 3000), soluble Fas immobilized on CM5 chip, antibody as analyte, bivalent analyte fit
Experimental: The interaction of F45D9 mAb's (γ-γ1 and γ4-isotypes) with immobilized soluble human Fas receptor was monitored by surface plasmon resonance detection using a BIAcore 3000 instrument. Recombinant human soluble Fas receptor (srFas) (PeproTech, cat. 310-20) was immobilized (concentration of 5 ug/ml in immobilization buffer: 10 mM sodium acetate pH 5.0) onto a CM5 sensor chip (BIAcore BR-1001-14) using an Amine Coupling kit (BIAcore, Cat. BR-1000-50), at a surface density of […] resonance units (RU). Deactivation of excess reactive groups on the chip surface was done by adding 1.0 M ethalonamine hydrochloride (pH 8.5). F45D9 mAb's-γ1 mAb were passed over the surface in equilibrium binding experiments at concentrations ranging from […] at a flow rate of 30 ul/min. Dilutions and binding experiments were conducted in 0.01 M HEPES (pH 7.4), 0.15 M NaCl, 3 mM EDTA, and 0.005% P-20 (BIAcore surfactant, BR-1001-88). Between each cycle 100 mM HCl was used to regenerate the surfaces at a flow rate 30 ul/min. KA and KD of F45D9 mAb's were-γ1 mAb was determined by fitting bivalentusing BIAcore models (BIAevaluation).

[12] = target: T1, Human Fas (CD95) on the cell surface; test: flow cytometry on SKW6.4 cells, FITC anti-human IgG secondary, geometric MFI after background subtraction
Experimental: as §2

- share of binding capacity on Jurkat cells at which complete blocking of FasL-induced apoptosis is achieved [1]: ≥ 12.5%
B1: F45D9-γ1 F(ab′)2 fragment (other)
VH: QVQLQQWGAGLLKPSETLSLICAVYGGSFSTYYWTWIRQPPGKGLEWIGEINHRGTTNYSPSLKSRVTISVDTSKNHISLNLTSVTAADTALYYCARGLLWIGEGDYGLDVWGQGTTVTVSS
VL: DIQMTQSPSSLSASVGDRVTITCRASQGIRRWLAWYQQKPEKAPKSLIYAASSLQSGVPSRFSGSGSGTDFTLTISSLQPEDFATYYCQQYNSYPYTFGQGTKLEIKR

- Ka [2]: 6.5e+09 M⁻¹
- Kd [2]: 0.153 nM
- binding result [3]: no binding (tested: 10-20 ug/ml)
- binding result [4]: no binding
- binding result [5]: binds
- binding result [6]: no binding
- binding result [7]: no binding (tested: 10-20 ug/ml)
- binding result [8]: no binding (tested: 10-20 ug/ml)
B2: F45D9 mAb (isotype not specified at the place) (antibody, V domains shown)
VH: B1 VH
VL: B1 VL
notes: also called F45D9 mAb's

- EC50 (read off the curve) [9]: ~0.6 µg/mL
- IC50 of inhibition of rhFasL-induced apoptosis in SKW6.4 cells (Annexin-V/PI, flow cytometry) [1]: 0.2 nM
- IC50 of inhibition of rhFasL-induced apoptosis in activated human T cells (Annexin-V/PI, flow cytometry) [1]: 0.02 nM
- share of binding capacity on Jurkat cells at which complete blocking of FasL-induced apoptosis is achieved [1]: ≥ 12.5%
- binding result [10]: binds
- Kd [11]: 0.0587 nM
- EC50 (read off the curve) [12]: ~0.7 µg/mL
B3: F45D9-γ4 mAb (recombinant human mAb T19/B5-1F9, gamma-4 isotype) (antibody, V domains shown)
VH: B1 VH
VL: B1 VL
notes: Whole human IgG4 (γ4P allotype vector pIESRαγ4P) with human kappa light chain, made in CHO DG44 cells; also called IgG4; T19/L22/B5-1F9

— patent US20100233157A1 (published 2010)
